Assay results published in patent US20130090286A1 (published 2013).
Square brackets hold non-standard residues; d marks the D form. Side chains are listed from the residue outwards. Ends that are not written are not given here. * marks the point of attachment. Palmitoyl = CCCCCCCCCCCCCCCC(=O)*; Aib = CC(C)(N)C(=O)O; βAla = NCCC(=O)O

Target: GLP-1 receptor (UniProt P43220 24-463, limits assumed)
Assay: cell-based or functional assay

B1: Peptide 86 (Table 22, SEQ ID NO: 568) (peptide)
peptide: H[Aib]QGTFTSDK([Leu-Leu-Palmitoyl])SKYLD[Aib]RRAQDFVQWLMNT-NH2
  cAMP EC50: 6 pM

B2: Peptide 84 (Table 22, SEQ ID NO: 566) (peptide)
peptide: H[Aib]QGTFTSDK([βAla-βAla-Palmitoyl])SKYLD[Aib]RRAQDFVQWLMNT-NH2
  cAMP EC50: 4 pM
